Experimental data: PMC10663608

Target: human EGFR tagged with mTurquoise at the C-terminus (EGFR-mTurquoise) (human) (UniProt P00533)

K (resp) of the transducer function for Y1068 phosphorylation (phosphorylation against ligand-bound EGFR fraction in single vesicles) (fraction of ligand-bound receptors): 0.4
K (resp) of the transducer function for Y1173 phosphorylation (phosphorylation against ligand-bound EGFR fraction in single vesicles) (fraction of ligand-bound receptors): 0.86
Substance: EGF ligand from mouse labeled with rhodamine at its N-terminus (rho-mEGF)
